The text below walks through data of publication PMC6200392.

Assay [1] addresses PRC1 N-terminus (Homo sapiens) (UniProt O43663). Particulars: cited from earlier work.
For assay [2], the target named is PRC1 (unlabeled, full-length) (human) (UniProt O43663).

For Kif4A C-terminus (from UniProt O95239), the Kd in assay [1] is 300 nM. As for “Kif4A-GFP (from UniProt O95239 1-1232) (natural protein)”, the relative sliding of PRC1-crosslinked antiparallel microtubules, average phase-1 sliding velocity; 0.2 and 1 nM PRC1 at 6 nM Kif4A-GFP in assay [2] came out at 4.6 ×10⁻⁶ cm/s.
